In the Human Domainome abundance scans (Beltran et al. 2025):
± gives the uncertainty stated by the source.

B1: Pre-mRNA-processing factor 40 homolog B, residues 274 to 332; numbered along this chain, Q6NWY9 (parent)
chain: SNREKAKQAFKELLRDKAVPSNASWEQAMKMVVTDPRYSALPKLSEKKQAFNAYKAQRE

Variants of: B1
Assay: abundance fitness (aPCA) (normalised: wild type 0, dead -1); higher = more abundant; growth selection in yeast, the domain comes from the species named
Settings: Homo sapiens

| Variant | abundance fitness |
| --- | --- |
| A23H | -0.591 ± 0.18 |
| A23S | -0.313 ± 0.072 |
| A23V | -0.222 ± 0.065 |
| A23D | -0.522 ± 0.091 |
| A23P | -0.533 ± 0.13 |
| A23C | -0.206 ± 0.083 |
| F10T | -0.048 ± 0.1 |
| F10K | -0.318 ± 0.12 |
| F10V | -0.511 ± 0.075 |
| F10G | -0.277 ± 0.059 |
| F10E | -0.067 ± 0.087 |
| F10I | -0.25 ± 0.22 |
| F10R | -0.332 ± 0.064 |
| F10S | -0.254 ± 0.072 |
| F10P | -0.177 ± 0.097 |
| F10Y | -0.282 ± 0.16 |
| F10H | -0.132 ± 0.14 |
| D16W | -0.579 ± 0.1 |
| D16A | -0.461 ± 0.079 |
| D16C | -0.933 ± 0.1 |
| D16V | -0.716 ± 0.073 |
| D16T | -0.351 ± 0.085 |
| D16H | -1.03 ± 0.18 |
| D16Q | -0.443 ± 0.12 |

| Variant | abundance fitness |
| --- | --- |
| D16F | -1.05 ± 0.11 |
| Q27N | -0.174 ± 0.15 |
| Q27S | -0.406 ± 0.11 |
| Q27P | -0.531 ± 0.2 |
| N2S | -0.208 ± 0.09 |
| N2V | -0.849 ± 0.16 |
| N2R | -0.324 ± 0.073 |
| N2P | -0.497 ± 0.17 |
| N2W | -0.276 ± 0.12 |
| N2D | 0.033 ± 0.18 |
| N2M | -0.393 ± 0.12 |
| N52T | -0.231 ± 0.1 |
| N52K | 0.031 ± 0.12 |
| N52H | -0.053 ± 0.18 |
| N52P | -0.367 ± 0.096 |
| N52L | -0.04 ± 0.092 |
| N52D | -0.038 ± 0.12 |
| N52C | -0.129 ± 0.15 |
| N52M | 0.039 ± 0.18 |
| N52V | -0.11 ± 0.083 |
| K47I | -0.972 ± 0.16 |
| K47Y | -0.567 ± 0.14 |
| K47A | -0.458 ± 0.079 |
| K47S | -0.46 ± 0.085 |

| Variant | abundance fitness |
| --- | --- |
| K47E | -0.477 ± 0.11 |
| K47W | -0.765 ± 0.1 |
| K47C | -0.606 ± 0.093 |
| L13M | 0.122 ± 0.097 |
| L13W | -1.02 ± 0.12 |
| L13E | -0.377 ± 0.074 |
| L13V | -0.511 ± 0.066 |
| L13D | -0.262 ± 0.1 |
| V32P | -0.439 ± 0.11 |
| V32L | -0.182 ± 0.1 |
| V32I | 0.178 ± 0.086 |
| V32T | -0.094 ± 0.083 |
| V32S | -0.343 ± 0.075 |
| Q8S | -0.362 ± 0.08 |
| Q8A | -0.145 ± 0.069 |
| Q8W | -0.581 ± 0.11 |
| Q8G | -0.301 ± 0.057 |
| Q8E | 0.003 ± 0.085 |
| Q8M | -0.416 ± 0.15 |
| R15S | -0.214 ± 0.1 |
| R15A | 0.001 ± 0.089 |
| R15G | -0.211 ± 0.084 |
| R15K | -0.129 ± 0.16 |
| R15I | -0.052 ± 0.18 |

| Variant | abundance fitness |
| --- | --- |
| A6M | -0.539 ± 0.13 |
| A6E | 0.172 ± 0.11 |
| A6T | -0.394 ± 0.13 |
| A56I | -0.261 ± 0.12 |
| A56C | -0.451 ± 0.12 |
| A56R | -0.116 ± 0.057 |
| A56W | -0.293 ± 0.079 |
| L14W | -0.963 ± 0.11 |
| L14E | -0.339 ± 0.096 |
| L14K | -0.408 ± 0.11 |
| E59A | 0.184 ± 0.14 |
| E59T | -0.109 ± 0.13 |
| E59S | -0.397 ± 0.13 |
| E59C | -0.216 ± 0.29 |
| E59R | -0.189 ± 0.074 |
| E59L | -0.424 ± 0.14 |
| E59D | -0.203 ± 0.16 |
| L44R | -0.36 ± 0.062 |
| L44D | -0.288 ± 0.13 |
| L44Y | -0.809 ± 0.22 |
| L44N | -0.448 ± 0.19 |
| L44S | -0.175 ± 0.076 |
| L44W | -0.561 ± 0.089 |
| L44H | -0.736 ± 0.17 |

| Variant | abundance fitness |
| --- | --- |
| S21N | -0.492 ± 0.16 |
| S21L | 0.109 ± 0.087 |
| S21W | -0.055 ± 0.13 |
| S21P | -0.146 ± 0.1 |
| Y54L | -0.085 ± 0.4 |
| S24C | -0.371 ± 0.16 |
| S24E | -0.306 ± 0.088 |
| S24N | -0.447 ± 0.2 |
| S24R | -0.671 ± 0.079 |
| S24Y | -0.74 ± 0.18 |
| K48N | -0.545 ± 0.16 |
| K48H | -0.335 ± 0.2 |
| K48C | -0.837 ± 0.23 |
| K48Q | -0.161 ± 0.12 |
| K48D | -0.579 ± 0.14 |
| W25C | -0.109 ± 0.12 |
| W25I | -0.251 ± 0.18 |
| W25Y | -0.18 ± 0.12 |
| W25F | 0.249 ± 0.12 |
| E46Y | -0.755 ± 0.19 |
| E46A | -0.466 ± 0.07 |
| E46P | -0.817 ± 0.11 |
| E46C | -0.519 ± 0.12 |
| E46K | -0.939 ± 0.17 |

| Variant | abundance fitness |
| --- | --- |
| E46I | -0.872 ± 0.17 |
| E46Q | -0.147 ± 0.15 |
| E46N | -0.566 ± 0.15 |
| E46L | -0.73 ± 0.085 |
| A18L | -0.127 ± 0.069 |
| A18E | -0.012 ± 0.069 |
| A18W | -0.473 ± 0.085 |
| A18Y | -0.656 ± 0.19 |
| A18C | 0.007 ± 0.11 |
| S45F | -0.233 ± 0.14 |
| S45H | -0.016 ± 0.22 |
| S45V | -0.457 ± 0.078 |
| S45G | -0.265 ± 0.062 |
| P20R | -0.592 ± 0.053 |
| P20N | -0.587 ± 0.13 |
| P20D | -0.395 ± 0.14 |
| P20L | -0.641 ± 0.072 |
| P20I | -0.753 ± 0.14 |
| P20T | -0.421 ± 0.083 |
| M29R | -0.078 ± 0.059 |
| M29Q | 0.047 ± 0.11 |
| M29Y | -0.014 ± 0.14 |
| M29V | -0.114 ± 0.063 |
| M29F | -0.295 ± 0.17 |

| Variant | abundance fitness |
| --- | --- |
| M29K | 0.166 ± 0.094 |
| K7G | -0.319 ± 0.054 |
| K7N | -0.074 ± 0.1 |
| K7E | 0.135 ± 0.08 |
| K7Y | -0.016 ± 0.15 |
| F51G | -0.28 ± 0.35 |
| R37H | -0.776 ± 0.19 |
| R37Q | -0.49 ± 0.11 |
| R37C | -0.668 ± 0.12 |
| R37I | -0.228 ± 0.14 |
| R37L | -0.6 ± 0.081 |
| R3H | -0.281 ± 0.22 |
| R3A | -0.409 ± 0.1 |
| R3F | -0.27 ± 0.17 |
| R3K | 0.308 ± 0.12 |
| R3C | 0.043 ± 0.12 |
| R3L | 0.044 ± 0.089 |
| K17F | -0.146 ± 0.099 |
| P36Y | -0.806 ± 0.13 |
| P36D | -0.049 ± 0.1 |
| P36A | -0.19 ± 0.076 |
| P36V | -0.353 ± 0.074 |
| P36H | -0.445 ± 0.21 |
